Laboratory results as given in article PMC12013264 (mSystems, 2025).
Values after ≈ are worked out from the molar mass of the structure shown. Like-named read-outs stand apart in the source and are kept apart here.

How the values were obtained:
KPC-3 = molecular target: T1, KPC-3 (Klebsiella pneumoniae, UniProt Q93DC4); assay: isothermal titration calorimetry; format: binding
T1 construct: gene bla; signal peptide (1-29) removed, KPC30-293 in pET28a, E. coli BL21 Rosetta-gami DE3, His-tag cut with thrombin
Description: isothermal titration calorimetry on KPC-3

E. coli DH10B = test system: T2, E. coli DH10B; assay: microbe, parasite or virus in culture; design: species or system E. coli DH10B or K. pneumoniae; CLSI standard broth microdilution MIC in triplicate, median values; conditions: Escherichia coli
T2 construct: DH10B empty plasmid control
Description: (§1) The blaKPC amplicons (full length) were cloned into the Tn4401a-pET28a plasmid between the BamHI (as the 5′ end upstream) and XbaI (as the 3′ end downstream) restriction sites, which is the opposite direction of conventional induced expression for removing the His-tag expression. This insertion was downstream of the blaKPC Tn4401a promoter. The Tn4401a promoter was inserted between the EcoRI and BamHI sites. KPC expression was achieved by inserting the natural promoter Tn4401a upstream of the blaKPC gene, thus avoiding the use of the pET-28a vector’s T7 promoter and the resulting His-tag fusion. E. coli DH10B strains containing the generated KPCs-Tn4401a-pET28a plasmid underwent antimicrobial susceptibility testing in triplicate using the standard broth microdilution, following the Clinical and Laboratory Standards Institute (CLSI) recommendations (CLSI M100-S34) . Klebsiella pneumoniae expressing KPC-3 and E. coli DH10B containing an empty plasmid served as positive and negative controls, respectively.

[1] = test system: T3, Klebsiella pneumoniae Kpn with KPC-3; assay: microbe, parasite or virus in culture; design: species or system E. coli DH10B or K. pneumoniae; CLSI standard broth microdilution MIC in triplicate, median values
T3 construct: K. pneumoniae producing KPC-3, positive control

[2] = test system: T4, E. coli DH10B carrying KPC-3-Tn4401a-pET28a; assay: microbe, parasite or virus in culture; design: species or system E. coli DH10B or K. pneumoniae; CLSI standard broth microdilution MIC in triplicate, median values; conditions: Escherichia coli
T4 construct: DH10B full-length blaKPC-3 under Tn4401a promoter in pET28a
Description: as §1, with “.” for “. Klebsiella pneumoniae expressing KPC-3 and E. coli DH10B containing an empty plasmid served as positive and negative controls, respectively.”

[3] = test system: T5, E. coli DH10B carrying KPC-2-Tn4401a-pET28a; assay: microbe, parasite or virus in culture; design: species or system E. coli DH10B or K. pneumoniae; CLSI standard broth microdilution MIC in triplicate, median values; conditions: Escherichia coli
T5 construct: DH10B full-length blaKPC-2 under Tn4401a promoter in pET28a
Description: as §1, with “.” for “. Klebsiella pneumoniae expressing KPC-3 and E. coli DH10B containing an empty plasmid served as positive and negative controls, respectively.”

[4] = test system: Cc1nnc(SCC2=C(C(=O)O)N3C(=O)[C@@H](NC(=O)Cn4cnnn4)[C@H]3SC2)s1; assay: purified protein; conditions: 100 mM sodium phosphate, pH 7.0, 37 °C
[5] = test system: CO/N=C(\C(=O)N[C@@H]1C(=O)N2C(C(=O)[O-])=C(C[N+]3(C)CCCC3)CS[C@H]12)c1csc(N)n1; assay: purified protein; conditions: 100 mM sodium phosphate, pH 7.0, 37 °C
[6] = test system: CCN1CCN(C(=O)N[C@@H](C(=O)N[C@@H]2C(=O)N3[C@@H]2SC(C)(C)[C@@H]3C(=O)O)c2ccccc2)C(=O)C1=O; assay: purified protein; conditions: 100 mM sodium phosphate, pH 7.0, 37 °C
[7] = test system: C[C@@H](O)[C@H]1C(=O)N2C(C(=O)O)=C(SCCN=CN)C[C@H]12; assay: purified protein; conditions: 100 mM sodium phosphate, pH 7.0, 37 °C
[8] = test system: CC(C)(O/N=C(\C(=O)N[C@@H]1C(=O)N2C(C(=O)[O-])=C(C[n+]3ccccc3)CS[C@H]12)c1csc(N)n1)C(=O)O; assay: purified protein; conditions: 100 mM sodium phosphate, pH 7.0, 37 °C
[9] = test system: C[C@@H](O)[C@H]1C(=O)N2C(C(=O)O)=C(S[C@@H]3CN[C@H](C(=O)N(C)C)C3)[C@H](C)[C@H]12; assay: purified protein; conditions: 100 mM sodium phosphate, pH 7.0, 37 °C

T1 sequence (Q93DC4 30-293 limits assumed): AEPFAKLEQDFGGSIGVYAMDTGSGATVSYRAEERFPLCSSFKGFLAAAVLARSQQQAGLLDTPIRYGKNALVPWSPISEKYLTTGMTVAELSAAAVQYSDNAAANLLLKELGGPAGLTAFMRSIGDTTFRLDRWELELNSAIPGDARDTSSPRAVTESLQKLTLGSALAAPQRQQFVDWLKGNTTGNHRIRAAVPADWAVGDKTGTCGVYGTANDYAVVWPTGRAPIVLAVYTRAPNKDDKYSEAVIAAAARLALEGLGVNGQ

## NC(=O)[C@@H]1CC[C@@H]2CN1C(=O)N2OS(=O)(=O)O [avibactam]
KPC-3
  Kd: 7.49 nM

## C[C@H]1[C@H](NC(=O)/C(=N\OC(C)(C)C(=O)O)c2csc(N)n2)C(=O)N1S(=O)(=O)O [aztreonam]
E. coli DH10B; read-out: MIC (mg/L)^a / ATM
  MIC: < 0.125 mg/L

## Cc1nnc(SCC2=C(C(=O)O)N3C(=O)[C@@H](NC(=O)Cn4cnnn4)[C@H]3SC2)s1 [cefazolin]
E. coli DH10B; read-out: MIC (mg/L)^a / CZO
  MIC: 2 mg/L (≈ 4.4 µM)
[1]; read-out: MIC (mg/L)^a / CZO
  MIC: > 256 mg/L
[2]; read-out: MIC (mg/L) ^a / CZO
  MIC: 256 mg/L (≈ 563 µM)
[3]; read-out: MIC (mg/L)^a / CZO
  MIC: 256 mg/L (≈ 563 µM)

## CO/N=C(\C(=O)N[C@@H]1C(=O)N2C(C(=O)[O-])=C(C[N+]3(C)CCCC3)CS[C@H]12)c1csc(N)n1 [cefepime]
E. coli DH10B; read-out: MIC (mg/L)^a / FEP
  MIC: < 0.125 mg/L
[1]; read-out: MIC (mg/L)^a / FEP
  MIC: > 256 mg/L
[2]; read-out: MIC (mg/L) ^a / FEP
  MIC: 8 mg/L (≈ 16.6 µM)
[3]; read-out: MIC (mg/L)^a / FEP
  MIC: 4 mg/L (≈ 8.32 µM)

## CC(C)(O/N=C(\C(=O)N[C@@H]1C(=O)N2C(C(=O)[O-])=C(C[n+]3ccccc3)CS[C@H]12)c1csc(N)n1)C(=O)O [ceftazidime]
E. coli DH10B; read-out: MIC (mg/L)^a / CAZ
  MIC: 0.25 mg/L (≈ 0.457 µM)
[1]; read-out: MIC (mg/L)^a / CAZ
  MIC: > 256 mg/L
[2]; read-out: MIC (mg/L) ^a / CAZ
  MIC: 64 mg/L (≈ 117 µM)
[3]; read-out: MIC (mg/L)^a / CAZ
  MIC: 8 mg/L (≈ 14.6 µM)

## CO/N=C(\C(=O)N[C@@H]1C(=O)N2C(C(=O)O)=C(CSc3nc(=O)c(O)nn3C)CS[C@H]12)c1csc(N)n1 [ceftriaxone]
E. coli DH10B; read-out: MIC (mg/L)^a / CRO
  MIC: < 0.125 mg/L

## CO/N=C(\C(=O)N[C@@H]1C(=O)N2C(C(=O)O)=C(COC(N)=O)CS[C@H]12)c1ccco1 [cefuroxime]
E. coli DH10B; read-out: MIC (mg/L)^a / CXM
  MIC: 4 mg/L (≈ 9.43 µM)
[1]; read-out: MIC (mg/L)^a / CXM
  MIC: > 256 mg/L
[2]; read-out: MIC (mg/L) ^a / CXM
  MIC: > 256 mg/L
[3]; read-out: MIC (mg/L)^a / CXM
  MIC: > 256 mg/L

## C[C@@H](O)[C@H]1C(=O)N2C(C(=O)O)=C(SCCN=CN)C[C@H]12 [imipenem]
E. coli DH10B; read-out: MIC (mg/L)^a / IPM
  MIC: 0.25 mg/L (≈ 0.835 µM)
[1]; read-out: MIC (mg/L)^a / IPM
  MIC: 16 mg/L (≈ 53.4 µM)
[2]; read-out: MIC (mg/L) ^a / IPM
  MIC: 2 mg/L (≈ 6.68 µM)
[3]; read-out: MIC (mg/L)^a / IPM
  MIC: 1 mg/L (≈ 3.34 µM)

## C[C@@H](O)[C@H]1C(=O)N2C(C(=O)O)=C(S[C@@H]3CN[C@H](C(=O)N(C)C)C3)[C@H](C)[C@H]12 [meropenem]
E. coli DH10B; read-out: MIC (mg/L)^a / MEM
  MIC: < 0.0312 mg/L
[1]; read-out: MIC (mg/L)^a / MEM
  MIC: > 4 mg/L
[2]; read-out: MIC (mg/L) ^a / MEM
  MIC: 0.25 mg/L (≈ 0.652 µM)
[3]; read-out: MIC (mg/L)^a / MEM
  MIC: 0.25 mg/L (≈ 0.652 µM)

## CCN1CCN(C(=O)N[C@@H](C(=O)N[C@@H]2C(=O)N3[C@@H]2SC(C)(C)[C@@H]3C(=O)O)c2ccccc2)C(=O)C1=O [piperacillin]
E. coli DH10B; read-out: MIC (mg/L)^a / PIP
  MIC: 2 mg/L (≈ 3.86 µM)
[1]; read-out: MIC (mg/L)^a / PIP
  MIC: > 256 mg/L
[2]; read-out: MIC (mg/L) ^a / PIP
  MIC: > 256 mg/L
[3]; read-out: MIC (mg/L)^a / PIP
  MIC: > 256 mg/L

## KPC-2 (Klebsiella pneumoniae)
[4]
  Km: 110 ± 3 µM
  kcat: 65 ± 5 s⁻¹
  kcat/Km: 590000 ± 41000 M⁻¹ s⁻¹
[5]
  Km: 310 ± 23 µM
  kcat: 4.7 ± 0.1 s⁻¹
  kcat/Km: 15000 ± 1200 M⁻¹ s⁻¹
[6]
  Km: 793 ± 34 µM
  kcat: 7.7 ± 0.5 s⁻¹
  kcat/Km: 9700 ± 900 M⁻¹ s⁻¹
[7]
  Km: 98 ± 9 µM
  kcat: 28 ± 2 s⁻¹
  kcat/Km: 290000 ± 10000 M⁻¹ s⁻¹
[8]
  Km: 590 ± 48 µM
  kcat: 3.27 ± 0.27 s⁻¹
  kcat/Km: 5500 ± 400 M⁻¹ s⁻¹
[9]
  Km: 16 ± 1 µM
  kcat: 8 ± 0.5 s⁻¹
  kcat/Km: 500000 ± 50000 M⁻¹ s⁻¹

## KPC-3 (Klebsiella pneumoniae)
[4]
  Km: 368 ± 16 µM
  kcat: 61 ± 2 s⁻¹
  kcat/Km: 170000 ± 13000 M⁻¹ s⁻¹
[5]
  Km: 512 ± 48 µM
  kcat: 4.5 ± 0.3 s⁻¹
  kcat/Km: 8900 ± 400 M⁻¹ s⁻¹
[6]
  Km: 1,097 ± 84 μM
  kcat: 5.2 ± 0.1 s⁻¹
  kcat/Km: 4800 ± 400 M⁻¹ s⁻¹
[7]
  Km: 64 ± 3 µM
  kcat: 33 ± 0.7 s⁻¹
  kcat/Km: 520000 ± 34000 M⁻¹ s⁻¹
[8]
  Km: 233 ± 19 µM
  kcat: 2.7 ± 0.2 s⁻¹
  kcat/Km: 11000 ± 1200 M⁻¹ s⁻¹
[9]
  Km: 24 ± 1 µM
  kcat: 5.7 ± 0.4 s⁻¹
  kcat/Km: 230000 ± 16000 M⁻¹ s⁻¹
